Data from PMC6418199 (Scientific Reports, 2019).

B1: 32D6 human monoclonal antibody (antibody, V domains shown)
VH: QVQLQESGPGLVKPSETLSLTCTVSGGSVNTGSYYWSWIRQPPGKGLEWIAYSSVSGTSNYNPSLKSRVTLTVDTSKNQFSLSVRSVTAADTAVYFCARLNYDILTGYYFFDFWGQGTLVIVSS
VL: QVELTQSPSASASLGTSVKLTCTLSSGHSTYAIAWHQQRPGKGPRYLMNLSSGGRHTRGDGIPDRFSGSSSGADRYLIISSLQSEDEADYYCQTWDAGMVFGGGTKLTVL
B2: 32D6-Fab (Fab, V domains shown)
VH: QVQLQESGPGLVKPSETLSLTCTVSGGSVNTGSYYWSWIRQPPGKGLEWIAYSSVSGTSNYNPSLKSRVTLTVDTSKNQFSLSVRSVTAADTAVYFCARLNYDILTGYYFFDFWGQGTLVIVSS
VL: QVELTQSPSASASLGTSVKLTCTLSSGHSTYAIAWHQQRPGKGPRYLMNLSSGGRHTRGDGIPDRFSGSSSGADRYLIISSLQSEDEADYYCQTWDAGMVFGGGTKLTVL
notes: also called Fab of 32D6; His-tagged Fab of 32D6 (with the CH1 domain); source: Expi293F cells, purified (HisTrap excel column)

Assays:
[1] = molecular target: hemagglutinin of H1N1 clinical isolate A/Taiwan/80813/2013 (genotype A/California/07/2009) (Influenza A virus A/Taiwan/80813/2013 …, UniProt C3W5X2, strain); assay: cell-based or functional assay
[2] = molecular target: hemagglutinin of H1N1 clinical isolate 2013-INF-152 (genotype A/California/07/2009) (Influenza A virus H1N1, clinical …, UniProt C3W5X2, strain); assay: cell-based or functional assay
[3] = molecular target: hemagglutinin of H1N1 clinical isolate 2013-INF-153 (genotype A/California/07/2009) (Influenza A virus H1N1, clinical …, UniProt C3W5X2, strain); assay: cell-based or functional assay
[4] = molecular target: hemagglutinin of H1N1 clinical isolate 2014-INF-36 (genotype A/California/07/2009) (Influenza A virus H1N1, clinical …, UniProt C3W5X2, strain); assay: cell-based or functional assay
[5] = molecular target: hemagglutinin of H1N1 clinical isolate 2014-INF-37 (genotype A/California/07/2009) (Influenza A virus H1N1, clinical …, UniProt C3W5X2, strain); assay: cell-based or functional assay
[6] = molecular target: HA1 domain (residues 63-290) of hemagglutinin from A/California/07/2009 (H1N1) (Influenza A virus …, UniProt C3W5X2); assay: SPR; […], single-cycle kinetics, 25 °C; […]; 10 mM HEPES pH 7.4, 150 mM NaCl; details: both partners purified

| Binder | Neutralization EC50 (infection of MDCK cells, high-content image system) [1] | Neutralization EC50 (infection of MDCK cells, high-content image system) [2] | Neutralization EC50 (infection of MDCK cells, high-content image system) [3] | Neutralization EC50 (infection of MDCK cells, high-content image system) [4] | Neutralization EC50 (infection of MDCK cells, high-content image system) [5] | Kd [6] | koff [6] | kon [6] |
| --- | --- | --- | --- | --- | --- | --- | --- | --- |
| B1 | 0.036 µg/mL | 0.014 µg/mL | 0.005 µg/mL | 0.011 µg/mL | 0.012 µg/mL | – | – | – |
| B2 | – | – | – | – | – | 0.353 nM | 9.12e-05 s⁻¹ | 258000 M⁻¹ s⁻¹ |
